The values below come from the nanobody polyreactivity screen of Harvey et al. (2022).

This data set is described as follows: yeast display, Sf9 membrane polyspecificity reagent, FACS + sequencing; frameworks hold sequencing errors. The method in brief: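 Sorting gates, low and high (top ~1%), were placed on anti-HA fluorescence to track expression and on streptavidin fluorescence to track reagent binding. A clone's polyreactivity label is taken from the gate it came out of. The reagent was 10% biotinylated, detergent-solubilized Sf9 membrane, applied for 1 hour at 4 °C to galactose-induced yeast display cells.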
With “QVQLVESGVGLVQAGGSLRLSCAASGIIFLENAMGWYRQAPGKERELVAGISSGGNTNYADSVKGRFTISRDNAKNTDYLQMNSLKPEDTAVYYCNTDWYLPRYVLLGYFSGTEDSWGQGTQVTVSS”, the “polyreactivity (PSR sort gate)” value was “low polyreactivity”.

As for “QVQLVESGVGLVQAGGSLRLSCAASGITFREYAMGWYRQAPGKERELVAAIRYSGGSTYYADSVKGRFTISRDNAMNTVYLQMNSLKPEDTAVYYCAADPRRTLSPQLSDYWGLGTQVTVSS”, the “polyreactivity (PSR sort gate)” value is given as “high polyreactivity”.

For the sequence “QVQLVESGVGLVQAGGSLRLSCAASGNIFGYYAMGWYRQAPGKERELVAAISRSGTRTYYADSVKGRFTISRDNAKNTVYLQMNSLKPEDTAVYYCNAAKSPARFQVNNFDYWGQGTQVTVSS”, the “polyreactivity (PSR sort gate)” value is reported as “high polyreactivity”.

Regarding “QVQLVESGVGLVQAGGSLRLSCAASGNIFTTYAMGWYRQAPGKERELVAAISRTGGRTSYADSVKGRFTISRDNAKNTVYLQMNSLKPEDTAVYYCAAVPTVRPSAPRARILSDYWGQGTQVTVSS”, the “polyreactivity (PSR sort gate)” value was “high polyreactivity”.

Consider “QVQLVESGVGLVQAGGSLRLSCAASGNTFLPYAMGWYRQAPGKERELVAANSWSGGSTYYADSVKGRFTISRDNAKNTVYLQMNSLKPEETAVYYSARRRIGTPAYYYWGHGTQVTVSS”, for which the “polyreactivity (PSR sort gate)” value was “high polyreactivity”.

On to “QVQLVESGVGLVQAGGSLRLSCAASGRIFCYYAMGWYRQAPGKERELVATINGGGSTNYADSVKGRFTISRDNAKNTVYLQMNSLKPEDTAVYYCAAAQWAYWLLYKYWGQVTQVTVSS”, for which the “polyreactivity (PSR sort gate)” value is given as “low polyreactivity”.

For “QVQLVESGVGLVQAGGSLRLSCAASGRTFAQYAMGCYRQAPGKERELVAVISRCTGRTYYADSVKGRFTISRDNAKNTVYLQMNSLKPEDTALYYCNTSPKLTYALLYVYWGQGTQVNVSS”, the “polyreactivity (PSR sort gate)” value is reported as “high polyreactivity”.

“QVQLVESGVGLVQAGGSLRLSCAASGSIFEDYVMGWYRQAPGKERELVADITSGGTTYYADSVKGRFTISRDNAKNTVYLQMNSLKPEDTAVYYCAAEVDWVPFLLDYWGQGTQVTVSS”: the “polyreactivity (PSR sort gate)” value is recorded as “low polyreactivity”.

For the sequence “QVQLVESGVGLVQAGGSLRLSCAASGSIFEVYAMGWYRQAPGKEREFVATLSGSGGSTYYADSVKGRFTISRDNAKNTVYLQMNSLKPEDTAVYYCAASIAWYSSFVITCYYWGQGTQVTVSS”, the “polyreactivity (PSR sort gate)” value is “low polyreactivity”.

As to “QVQLVESGVGLVQAGGSLRLSCAASGSIFVYYAMGWYRPAPGKERELVAAINFRGGNTYYADSVKGRFTISRDNAKNTVYLQMNRLKPEDTAVYYCAADYRWKWIGGARYDYWGQGTQVTVSS”, the “polyreactivity (PSR sort gate)” value was “low polyreactivity”.

For “QVQLVESGVGLVQAGGSLRLSCAASGSIITPYAMGWYRQAPGKERELVAAITSGGSTYADSVKGRFTISRDNAKNTVYLQMNSLKPEDTAVYYCAADRSYVYAGADMYYWGQGTQVTVSS”, the “polyreactivity (PSR sort gate)” value is recorded as “low polyreactivity”.

“QVQLVESGVGLVQAGGSLRLSCAASGSNFNTYTMGRYRQAPGKERELVAAITWSGGRTYYADSVKGRFTISRDNAKNTVYLQMNSLKPEDTAGYYCAADWGEDYTRDDYWGQGTQVTVSS”: the “polyreactivity (PSR sort gate)” value is “low polyreactivity”.

With “QVQLVESGVGLVQAGGSLRLSCAASGSTFGGYAMGWYRQAPGKERELVAAITSRSGRTYYADSVKGRFTISRDIAKNTVYLQMNSLKPEDTAVYYCATPQYPGRDYWGQGTQVTVSS”, the “polyreactivity (PSR sort gate)” value is on record as “high polyreactivity”.

With “QVQLVESGVGLVQAGGSLRLSCAASGSTFSIYALGWYRQAPGKERELVAAISWDSDDTYYADSVNGRFTISRDNAKNTVYLQMNSLKPEDTAVYYCAADRLDRYYYWGQGTQVTVSS”, the “polyreactivity (PSR sort gate)” value was “low polyreactivity”.

Take “QVQLVESGVGLVQAGGSLRLSCAASGSTFSYYAMGWYRQAPGKERELVAAITRSGGRTYYADSVKGRFTISRDNAKNTVYLQMNSLKPEDTAVYYCAALSVGTRRDYWGQGTQVTVSS”: the “polyreactivity (PSR sort gate)” value is reported as “low polyreactivity”.

For “QVQLVESGVGLVQAGGSLRLSCAASGSTFYAYAMGWNRQAPGKERELVAAISSDGTNYADSVKGRFTISRDNAKNTVYLQMNSLKPDDTAVYYCAADLLLYSSQDNDYWGQGTQVTVSS”, the “polyreactivity (PSR sort gate)” value is on record as “low polyreactivity”.

Take “QVQLVESGVGLVQAGGSLRLSCAASGSTFYRNTMGWYRQAPGKERELVAAINTSGASTYYADSVKGRFTISRDNAKNTVYLQMNSLKPEDTAVYYCAALYRGYTGGYKFYYWGQGTQVTVSS”: the “polyreactivity (PSR sort gate)” value is recorded as “high polyreactivity”.

Consider “QVQLVESGVGLVQAGGSLRLSCAASGSTLVSYAKGWYIQAPGKERELVASISSGDSTYADSVKGRFTISRDNAKNTVYLQMNSLKPEDTAVYYCNVGNEGSYGFPVTYEYWGQGTQVTVSS”, for which the “polyreactivity (PSR sort gate)” value was “low polyreactivity”.

In the case of “QVQLVESGVGLVQAGGSLRLSCAASGYIFYYYAMGWYRQAPGKESELVAAISSTVSTNYADSVKGRFTISRDNAKNTVYLQMNSLKPEDTAVYYCAAAQRVNHVWYDYWGQGTQVTVSS”, the “polyreactivity (PSR sort gate)” value is “low polyreactivity”.

For the sequence “QVQLVESGVGLVQAGGSLRLSCAASGYTFLYYAMGWYRQAPGTERELVAAISSGGRTYYADSVKGRFTISRDNAKNTVYLQMNSLKPEVTAVYYCNTGALIHNGYYGLDYWGQGTQVTVSS”, the “polyreactivity (PSR sort gate)” value is given as “high polyreactivity”.

On to “QVQLVESGVGLVQAGGSLRLSCAASVYTFFIYAMRWYRHAHGQERELVARIRATGDSTYYADSVKGRFTISRDNAKNTVYLQMNSLKPDDTAVYYFNVRPVYSYREYGYWGQGTQVTVSS”, for which the “polyreactivity (PSR sort gate)” value is on record as “high polyreactivity”.

Take “QVQLVESGVGLVQAGGSLRLSCAATGSIFRVNAMGWYRQAPGKERELVAGIRWRGGSTYYADSVKGRFTISRDNAKNTVYLQMNSLKPEDTAVYYCAARSYPFIATYGYWGQGTQVTVSS”: the “polyreactivity (PSR sort gate)” value is on record as “high polyreactivity”.

Consider “QVQLVESGVGLVQAGGSLRLSCAAYGSTFVSNAMGWDRQAPGKERELVAAISTSGGSTYYADSVKGRFTISRDNAKNTVYLQMNSLKPEDTAVYYCAKLLARGFRIWQDYDYWGQGTQVTVSS”, for which the “polyreactivity (PSR sort gate)” value is given as “low polyreactivity”.

For “QVQLVESGVGLVQAGGSLRLSCADSGLILSKYAKVWYRPAPGKEREFVAAITQTGSRTYYADSVKGRFTSSRDNAKNTVYLQMNSLKPEDTAVYYCNAVNYRSSRDSGYWGQGTQVTVSS”, the “polyreactivity (PSR sort gate)” value is on record as “high polyreactivity”.

Consider “QVQLVESGVGLVQAGGSLRLSCASSGYTFFYYSMGWYRQAPGKEREFVAAISTGTGSTYYADSVKGRFTISRDNAKNTVYLQMNSLKPEDTAVYYCAADGTLYYFGLEYDYWGQGTQVTVSS”, for which the “polyreactivity (PSR sort gate)” value was “low polyreactivity”.

For “QVQLVESGVGLVQAGGSLRLSCGASGSIFVANVMGWYRQAPGKEREFVATISWNGGNTYYADSVKGRFTISRDNAKNTVYLQMNSLKPEDTAVYYCAAEPLTPSRDRVPYEYYYWGQGTQVTVSS”, the “polyreactivity (PSR sort gate)” value is “high polyreactivity”.

As for “QVQLVESGVGLVQAGGSLRLSCSASGSTFFGNGMGWYRQAPGKERELVAAISGGGSTHYADSVKGRFTISRDNAKNTVYLQMNSLKPEDPAVYYCSPSRDTVGRGPIQRDYWGQGTQVTVSS”, the “polyreactivity (PSR sort gate)” value was “low polyreactivity”.

For “QVQLVESGVGLVQAGGSLRLSSAASGFTFIYYPMGWYRPAPGKERELVAAITSGGNTYYADSVKGRFTISRDNAKNSVYFQMNSLKPEDTAVYYCNKVPHREWVGGYDYWGQGTQVTVSS”, the “polyreactivity (PSR sort gate)” value is reported as “low polyreactivity”.

As for “QVQLVESGVGLVQAGGSLRLSSAASGSIFAHNAMGWYRQEPGKEREFVATITYSGGTTYYADSVKGRFTISRDNAKNTVYLQMNILKPEDTAVYYCAKLRYPYLFWDDSEYWGQGTQVTVSS”, the “polyreactivity (PSR sort gate)” value is listed as “low polyreactivity”.

For “QVQLVESGVGLVQAGGSLRLSWAATGSIFPYNDLGWYRKAPGKERELVAAISDSAGTTYYADSVKGRFTISRDNAKNTVDLQMNSLKPEDTAGYYCAADSWDSQVVSYEYWGQGTQVTLSS”, the “polyreactivity (PSR sort gate)” value is listed as “low polyreactivity”.

As to “QVQLVESGVGLVQAGGSLRLTCAASGITFLYNAMGSYRQAPGKERELVAVITRGGITNYADSVKGRFTISRDNAKNTDSLQMYRLNPEDTAVYDWAAYRGIYSRYDYWGQGTQVNVSS”, the “polyreactivity (PSR sort gate)” value was “high polyreactivity”.

“QVQLVESGVGLVQAGGSLSLSCAASGPYYFMGWYRQAPGKESELVAAITRRGGRTYYADSVKGRFTISRDNANITVYLQMNSLKPEDTAVYYCAAKYRYHVSGYDYWGQGTQVTVSS”: the “polyreactivity (PSR sort gate)” value was “high polyreactivity”.

Regarding “QVQLVESGVGLVQAGVRLRLSCAASGITLRRYAMGWYRQAPGKEREFVAAISRTGGNTYYADSVKGRFTISRDNAKNTVYLQMNSLKPEDTAVYYCAREVYRHYAPVGYDYWGQGTQVTVSS”, the “polyreactivity (PSR sort gate)” value is listed as “high polyreactivity”.

With “QVQLVESGVGLVQAGVSLRLSCAASGIILTEYAMGCYRQAHGKERELVAAINRVGSTNYADSVKGRFTISRDNAKNTVYLQMNSLNPEDTAVYYCAAGTYYNDYDYWGQGTQVTVSS”, the “polyreactivity (PSR sort gate)” value is reported as “low polyreactivity”.

In the case of “QVQLVESGVGLVQAGVSLRLSSAASGSIFRLYTMGWYRQATGKERELVAAITWSGGRTYYADSVKGRFTISRDNAKNTVYLQMNSLKPEDTAVYYCAADNWYSTYDYWGRGTQVTVSS”, the “polyreactivity (PSR sort gate)” value is given as “high polyreactivity”.

As for “QVQLVESGVGLVQARGSLRLSCAASGIIFKKTVMGWYRPSPGKERECVAPITSRDGSTYYADSVKGRFTISRDNANNTVYLQMNSLKPEDTAVYYCAAEVYDGYEYEVWYDYCGQGTQVTVSS”, the “polyreactivity (PSR sort gate)” value was “high polyreactivity”.

Consider “QVQLVESGVGLVQARGSLRLSSAASGRIFDRNAMGWYRQSPGNERELVAAIDDSGGDTSYADSVKGRFTISRDNAKNTVYLQMTSLKPEDTAVYYCNAVKQRSSIFDYWGQGTQLTVSS”, for which the “polyreactivity (PSR sort gate)” value is listed as “low polyreactivity”.

“QVQLVESGVGLVQARRSLRLSCAASGSSKLILWDGIDRRLGKKGSWLPLFVLVVLRNYADSVKGRFTISRDNAKNTVYLQMNILKPDDTEVYYCAATAIGSGGWGDYWGLGTQVTVSS”: the “polyreactivity (PSR sort gate)” value is recorded as “low polyreactivity”.

“QVQLVESGVGLVQPGGILRLSCAASGIIFTQYAMGWNIQAPGKESELVAAMSGSGGSTYYADSVKGRFTISRDNAKNTVYLQMNSLKPEDTAVFYCAAGGVRGPGVESRMFYLGQGTQVTVSS”: the “polyreactivity (PSR sort gate)” value is reported as “high polyreactivity”.

On to “QVQLVESGVGVVQAGGSLRLSCAASGRIFYGYAMGWYRQAPGKERELVAAISRGGTRTFYADSVKGRFTISRDNAKNTVYVQMNSLKPEDTAVYYCAARKRDFYSGYEYYYWGQGTQVTVSS”, for which the “polyreactivity (PSR sort gate)” value is listed as “high polyreactivity”.

With “QVQLVESGVRLGQAGGSLRLSCAASGSIFLRYAMGWFRPAPGKERELVATISQRGSTYYADSVKGRFTISRDNAKNTVYLKKNSLKPEDTAVYYCNAVGRARTLGSNTYGYWGQGTQVTVSS”, the “polyreactivity (PSR sort gate)” value is reported as “high polyreactivity”.
